From patent publication US20040224408A1, “THAP proteins as nuclear receptors for chemokines and roles in transcriptional regulation, cell proliferation and cell differentiation” (published 2004)

Assays:
[1] = biological target: T1, THAP1-N2 deletion mutant (amino acids 1-166) (human, UniProt Q9NVV9 1-166); test: GST pull-down, immobilized GST-Par4DD, in vitro translated 35S-labelled mutant
T1 construct: Tested as a Gal4-BD or Gal4-AD fusion, as in vitro translated 35S-labelled protein and as an EGFP fusion
T1 sequence: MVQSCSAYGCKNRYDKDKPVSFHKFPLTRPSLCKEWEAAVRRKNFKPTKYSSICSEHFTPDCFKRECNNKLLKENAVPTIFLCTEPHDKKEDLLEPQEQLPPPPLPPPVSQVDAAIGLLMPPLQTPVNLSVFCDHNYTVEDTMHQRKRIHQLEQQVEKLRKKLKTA
Description: (§1) THAP1 mutants were also tested in the in vitro THAP1/Par4 interaction assay. In vitro-translated THAP1 mutants were generated with the TNT-coupled reticulocyte lysate system (Promega, Madison, Wis., USA) using pGBKT7-THAP1-C1, -C2, -C3, -N1, -N2 or -N3 vector as template. 25 μl of each ³⁵S-labelled THAP1 mutant was incubated with immobilized GST or GST-Par4 protein overnight at 4° C., in the following binding buffer: 10 mM NaPO4 pH 8.0, 140 mM NaCl, 3 mM MgCl2, 1 mM dithiothreitol (DTT), 0.05% NP40, and 0.2 mM phenylmethyl sulphonyl fluoride (PMSF), 1 mM Na Vanadate, 50 mM β Glycerophosphate, 25 μg/ml chimotrypsine, 5 μg/ml aprotinin, 10 μg/ml Leupeptin. Beads were then washed 5 times in 1 ml binding buffer. Bound proteins were eluted with 2×Laemmli SDS-PAGE sample buffer, fractionated by 10% SDS-PAGE and visualized by fluorography using Amplify (Amersham Pharmacia Biotech). As expected, THAP1-C1, -C2, -C3, -and -N3 interacted with GST/Par4DD (FIG. 4B).

[2] = biological target: T2, THAP1-N1 deletion mutant (amino acids 1-90) (human, UniProt Q9NVV9 1-90); test: as above
T2 construct: Tested as a Gal4-BD or Gal4-AD fusion, as in vitro translated 35S-labelled protein and as an EGFP fusion
T2 sequence: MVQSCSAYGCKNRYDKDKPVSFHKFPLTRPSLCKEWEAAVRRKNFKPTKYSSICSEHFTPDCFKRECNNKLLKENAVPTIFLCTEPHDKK
Description: as §1

[3] = biological target: T3, THAP1ΔQRCRR mutant (deletion of residues 168-172) (human, UniProt Q9NVV9 1-213); test: in vitro THAP1/Par4 interaction assay (GST pull-down with GST-Par4DD)
T3 construct: Tested as a Gal4-BD fusion (pGBKT7), as in vitro translated protein and as an EGFP fusion; also called THAP1?QRCRR; THAP1?(QRCRR)
T3 sequence: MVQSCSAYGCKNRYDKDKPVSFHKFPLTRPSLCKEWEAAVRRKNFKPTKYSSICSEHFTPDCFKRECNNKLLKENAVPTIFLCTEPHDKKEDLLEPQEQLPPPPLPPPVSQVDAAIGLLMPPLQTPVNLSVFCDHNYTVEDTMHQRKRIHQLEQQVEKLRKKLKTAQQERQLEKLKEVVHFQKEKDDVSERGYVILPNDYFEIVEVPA
Description: as §1
for mutant THAP1ΔQRCRR. The resulting PCR fragments were digested with EcoRI and BamHI, and cloned in frame downstream of the Gal4 Binding Domain (Gal4-BD) in pGBKT7 two-hybrid vector (Clontech) to generate pGBKT7-THAP1-RR/AA and −Δ(QRCRR), or downstream of the Enhanced Green Fluorescent Protein (EGFP) ORF in pEGFP.C2 vector (Clontech) to generate pEGFP.C2-THAP1-RR/AA and −Δ(QRCRR). […]

THAP1 THAP domain [4] = biological target: T4, THAP1 THAP domain (Homo sapiens, UniProt Q9NVV9 SEQ:1-90); test: EMSA; 20 mM Tris-HCl pH 7.5, 100 mM KCl, poly(dI-dC), room temperature; abrogated by 1,10-phenanthroline, restored by Zn; self-competed by 50-250x unlabelled probe; conditions: tags: C-terminal His6 (pET-21c); label: 32P
T4 sequence: T2 sequence
Description: Binding reactions were carried out for 10 minutes at room temperature in 20 μl binding buffer (20 mM Tris-HCl pH 7.5, 100 mM KCl, 0.1% NP-40, 100 μg/ml BSA, 2.5 mM DTT, 5% glycerol, 200 ng poly (dI-dC)). Electrophoresis was performed on 8% (29:1) polyacrylamide gels containing 5% glycerol. Gels were run in 0.25×TBE at 150V and 4° C., dried and exposed on a phosphoimager screen (Molecular Dynamics). Sequences of wild type and mutant THRE oligonucleotides used in EMSA experiments were as follow (mutations are indicated in bold): wild-type probe 3, 5′-[…]-3′ (SEQ ID NO: 313); mutant probe 3mut1, 5′-[…]-3′ (SEQ ID NO: 314); mutant probe 3mut3, 5′-[…]-3′ (SEQ ID NO: 319); mutant probe 3mut4, 5′-[…]-3′ (SEQ ID NO: 320); mutant probe 3mut14, 5′-[…]-3′ (SEQ ID NO: 321); mutant probe 3mut5, 5′-[…]-3′ (SEQ ID NO: 322).
For competition experiments, 50-, 150-, and 250-fold molar excess of unlabelled wild-type (THRE competitor, probe 3) or mutant (non-specific competitor, probe 3mut1) THRE oligonucleotides were added to the reaction mixture just before the addition of the probe.
Since the THAP domain is characterized by a C2-CH conserved motif that may function as a Zn-binding site, we then determined whether DNA-binding activity of the THAP domain is Zn-dependent. […]

THAP1 THAP domain [5] = biological target: T4, THAP1 THAP domain; test: EMSA; also no competition at 50-250x molar excess; conditions: tags: C-terminal His6 (pET-21c); label: 32P
Description: To confirm that the THAP domain is a novel sequence specific DNA-binding domain, electrophoretic mobility shift assays (EMSA) were carried out using wild-type or mutant THAP domain responsive elements (THRE) determined by SELEX (see Example 28 and FIGS. 18 and 24). Double-stranded probes used in EMSA experiments were purified on 12% polyacrylamide gels, ³²P end labeled with T4 polynucleotide kinase and quantified by Cerenkov counting. About 20 ng of purified THAP domain from human THAP1 (prepared as described in Example 28) was incubated with 30000 cpm of the appropriate probe (about 2 ng). Binding reactions were carried out for 10 minutes at room temperature in 20 μl binding buffer (20 mM Tris-HCl pH 7.5, 100 mM KCl, 0.1% NP-40, 100 μg/ml BSA, 2.5 mM DTT, 5% glycerol, 200 ng poly (dI-dC)). Electrophoresis was performed on 8% (29:1) polyacrylamide gels containing 5% glycerol. Gels were run in 0.25×TBE at 150V and 4° C., dried and exposed on a phosphoimager screen (Molecular Dynamics). […]

B1: GST-Par4DD fusion protein (pGEX-2T-Par4DD, Par4 amino acids 250-342) (other)
chain: GFPRYNRDANVSGTLVSSSTLEKKIEDLEKEVVTERQENLRLVRLMQDKEEMIGKLKEEIDLLNRDLDDIEDENEQLKQENKTLLKVVGQLTR
notes: Expressed in E. coli DH5alpha and immobilized on glutathione sepharose; not shown: Glutathione S-transferase (GST) encoded by the pGEX-2T prokaryotic expression vector (Amersham Pharmacia Biotech); N-ter
- binding result [1]: no binding
- binding result [2]: no binding
- binding result [3]: no binding

B2: wild-type THRE probe 3 (dsDNA)
DNA 1: AGCAAGTAAGGGCAAACTACTTCAT
DNA 2: ATGAAGTAGTTTGCCCTTACTTGCT
- binding result (THAP1 THAP domain [4]): binds

B3: 3mut1 (dsDNA)
DNA 1: AGCAAGTAATTTCAAACTACTTCAT
DNA 2: ATGAAGTAGTTTGAAATTACTTGCT
- binding result (THAP1 THAP domain [5]): no binding
